Results: patent US20260167699A1 (Chugai, published 2026)

Biological target: T1, FcγRIIIa (human, UniProt P08637 17-208)
T1 construct: extracellular domain; also called 3a; FcγRIIIa extracellular domain
Test: SPR (Biacore);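 further: antibody variants captured on an SPR sensor chip, with FcγRIIIa passed over as analyte in HBS-EP+ buffer at 25 °C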

T1 sequence (P08637 other isoform, or with tags, fused parts or gaps): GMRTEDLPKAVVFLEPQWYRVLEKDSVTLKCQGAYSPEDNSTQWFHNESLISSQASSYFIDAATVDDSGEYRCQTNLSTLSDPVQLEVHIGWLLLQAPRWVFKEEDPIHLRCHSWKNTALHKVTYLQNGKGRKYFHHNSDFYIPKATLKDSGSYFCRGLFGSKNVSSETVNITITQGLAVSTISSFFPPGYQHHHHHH

Binder	He/Con 3a
GpH7-A5/GpH7-B3 variant P271_20W/GpL16-k0 (antibody, human IgG1, kappa, copies: 1 + 1 + 2) heavy 1: not shown heavy 2: not shown light: DIVMTQSPLSLPVTPGEPASISCQASESLVHSNRNTYLHWYLQKPGQSPQLLIYKVSNRFSGVPDRFSGSGSGTDFTLKISRVEAEDVGVYYCSQNTHVPPTFGQGTKVEIERTVAAPSVFIFPPSDEQLKSGTASVVCLLNNFYPREAKVQWKVDNALQSGNSQESVTEQDSKDSTYSLSSTLTLSKADYEKHKVYACEVTHQGLSSPVTKSFNRGEC	77.8 % of GpH7-A5/GpH7-B3/GpL16-k0
GpH7-A5/GpH7-B3 variant P331_03V/GpL16-k0 (antibody, human IgG1, kappa, copies: 1 + 1 + 2) heavy 1: not shown heavy 2: not shown light: DIVMTQSPLSLPVTPGEPASISCQASESLVHSNRNTYLHWYLQKPGQSPQLLIYKVSNRFSGVPDRFSGSGSGTDFTLKISRVEAEDVGVYYCSQNTHVPPTFGQGTKVEIERTVAAPSVFIFPPSDEQLKSGTASVVCLLNNFYPREAKVQWKVDNALQSGNSQESVTEQDSKDSTYSLSSTLTLSKADYEKHKVYACEVTHQGLSSPVTKSFNRGEC	66.9 % of GpH7-A5/GpH7-B3/GpL16-k0
GpH7-A5/GpH7-B3 variant P331_11K/GpL16-k0 (antibody, human IgG1, kappa, copies: 1 + 1 + 2) heavy 1: not shown heavy 2: not shown light: DIVMTQSPLSLPVTPGEPASISCQASESLVHSNRNTYLHWYLQKPGQSPQLLIYKVSNRFSGVPDRFSGSGSGTDFTLKISRVEAEDVGVYYCSQNTHVPPTFGQGTKVEIERTVAAPSVFIFPPSDEQLKSGTASVVCLLNNFYPREAKVQWKVDNALQSGNSQESVTEQDSKDSTYSLSSTLTLSKADYEKHKVYACEVTHQGLSSPVTKSFNRGEC	61.8 % of GpH7-A5/GpH7-B3/GpL16-k0
GpH7-A5/GpH7-B3 variant Q295_01G/GpL16-k0 (antibody, human IgG1, kappa, copies: 1 + 1 + 2) heavy 1: not shown heavy 2: not shown light: DIVMTQSPLSLPVTPGEPASISCQASESLVHSNRNTYLHWYLQKPGQSPQLLIYKVSNRFSGVPDRFSGSGSGTDFTLKISRVEAEDVGVYYCSQNTHVPPTFGQGTKVEIERTVAAPSVFIFPPSDEQLKSGTASVVCLLNNFYPREAKVQWKVDNALQSGNSQESVTEQDSKDSTYSLSSTLTLSKADYEKHKVYACEVTHQGLSSPVTKSFNRGEC	76.6 % of GpH7-A5/GpH7-B3/GpL16-k0
GpH7-A5/GpH7-B3 variant P331_10E/GpL16-k0 (antibody, human IgG1, kappa, copies: 1 + 1 + 2) heavy 1: not shown heavy 2: not shown light: DIVMTQSPLSLPVTPGEPASISCQASESLVHSNRNTYLHWYLQKPGQSPQLLIYKVSNRFSGVPDRFSGSGSGTDFTLKISRVEAEDVGVYYCSQNTHVPPTFGQGTKVEIERTVAAPSVFIFPPSDEQLKSGTASVVCLLNNFYPREAKVQWKVDNALQSGNSQESVTEQDSKDSTYSLSSTLTLSKADYEKHKVYACEVTHQGLSSPVTKSFNRGEC	68.7 % of GpH7-A5/GpH7-B3/GpL16-k0
GpH7-A5/GpH7-B3 variant P329_10E/GpL16-k0 (antibody, human IgG1, kappa, copies: 1 + 1 + 2) heavy 1: not shown heavy 2: not shown light: DIVMTQSPLSLPVTPGEPASISCQASESLVHSNRNTYLHWYLQKPGQSPQLLIYKVSNRFSGVPDRFSGSGSGTDFTLKISRVEAEDVGVYYCSQNTHVPPTFGQGTKVEIERTVAAPSVFIFPPSDEQLKSGTASVVCLLNNFYPREAKVQWKVDNALQSGNSQESVTEQDSKDSTYSLSSTLTLSKADYEKHKVYACEVTHQGLSSPVTKSFNRGEC	52.7 % of GpH7-A5/GpH7-B3/GpL16-k0
GpH7-A5/GpH7-B3 variant P331_13S/GpL16-k0 (antibody, human IgG1, kappa, copies: 1 + 1 + 2) heavy 1: not shown heavy 2: not shown light: DIVMTQSPLSLPVTPGEPASISCQASESLVHSNRNTYLHWYLQKPGQSPQLLIYKVSNRFSGVPDRFSGSGSGTDFTLKISRVEAEDVGVYYCSQNTHVPPTFGQGTKVEIERTVAAPSVFIFPPSDEQLKSGTASVVCLLNNFYPREAKVQWKVDNALQSGNSQESVTEQDSKDSTYSLSSTLTLSKADYEKHKVYACEVTHQGLSSPVTKSFNRGEC	80.9 % of GpH7-A5/GpH7-B3/GpL16-k0
GpH7-A5/GpH7-B3 variant P331_06M/GpL16-k0 (antibody, human IgG1, kappa, copies: 1 + 1 + 2) heavy 1: not shown heavy 2: not shown light: DIVMTQSPLSLPVTPGEPASISCQASESLVHSNRNTYLHWYLQKPGQSPQLLIYKVSNRFSGVPDRFSGSGSGTDFTLKISRVEAEDVGVYYCSQNTHVPPTFGQGTKVEIERTVAAPSVFIFPPSDEQLKSGTASVVCLLNNFYPREAKVQWKVDNALQSGNSQESVTEQDSKDSTYSLSSTLTLSKADYEKHKVYACEVTHQGLSSPVTKSFNRGEC	68.4 % of GpH7-A5/GpH7-B3/GpL16-k0
GpH7-A5/GpH7-B3 variant P331_04F/GpL16-k0 (antibody, human IgG1, kappa, copies: 1 + 1 + 2) heavy 1: not shown heavy 2: not shown light: DIVMTQSPLSLPVTPGEPASISCQASESLVHSNRNTYLHWYLQKPGQSPQLLIYKVSNRFSGVPDRFSGSGSGTDFTLKISRVEAEDVGVYYCSQNTHVPPTFGQGTKVEIERTVAAPSVFIFPPSDEQLKSGTASVVCLLNNFYPREAKVQWKVDNALQSGNSQESVTEQDSKDSTYSLSSTLTLSKADYEKHKVYACEVTHQGLSSPVTKSFNRGEC	70.7 % of GpH7-A5/GpH7-B3/GpL16-k0
GpH7-A5/GpH7-B3 variant P331_18N/GpL16-k0 (antibody, human IgG1, kappa, copies: 1 + 1 + 2) heavy 1: not shown heavy 2: not shown light: DIVMTQSPLSLPVTPGEPASISCQASESLVHSNRNTYLHWYLQKPGQSPQLLIYKVSNRFSGVPDRFSGSGSGTDFTLKISRVEAEDVGVYYCSQNTHVPPTFGQGTKVEIERTVAAPSVFIFPPSDEQLKSGTASVVCLLNNFYPREAKVQWKVDNALQSGNSQESVTEQDSKDSTYSLSSTLTLSKADYEKHKVYACEVTHQGLSSPVTKSFNRGEC	67.1 % of GpH7-A5/GpH7-B3/GpL16-k0
GpH7-A5/GpH7-B3 variant P331_09D/GpL16-k0 (antibody, human IgG1, kappa, copies: 1 + 1 + 2) heavy 1: not shown heavy 2: not shown light: DIVMTQSPLSLPVTPGEPASISCQASESLVHSNRNTYLHWYLQKPGQSPQLLIYKVSNRFSGVPDRFSGSGSGTDFTLKISRVEAEDVGVYYCSQNTHVPPTFGQGTKVEIERTVAAPSVFIFPPSDEQLKSGTASVVCLLNNFYPREAKVQWKVDNALQSGNSQESVTEQDSKDSTYSLSSTLTLSKADYEKHKVYACEVTHQGLSSPVTKSFNRGEC	71.6 % of GpH7-A5/GpH7-B3/GpL16-k0
